Measured values published in US20230192842A1 (published 2023).

Assays:
Assay in all cases: flow cytometry, 906-mAb-PE on RKO KO cells expressing the mutant
[1] = biological target: human CLDN3 R157A mutant on RKO KO cells (human) (UniProt O15551)
[2] = biological target: human CLDN3 I45A mutant on RKO KO cells (human) (UniProt O15551)
[3] = biological target: human CLDN3 P152A mutant on RKO KO cells (human) (UniProt O15551)
[4] = biological target: human CLDN3 S42A mutant on RKO KO cells (human) (UniProt O15551)
Chain of human CLDN3 S42A mutant on RKO KO cells (human) (O15551 whole entry S42A): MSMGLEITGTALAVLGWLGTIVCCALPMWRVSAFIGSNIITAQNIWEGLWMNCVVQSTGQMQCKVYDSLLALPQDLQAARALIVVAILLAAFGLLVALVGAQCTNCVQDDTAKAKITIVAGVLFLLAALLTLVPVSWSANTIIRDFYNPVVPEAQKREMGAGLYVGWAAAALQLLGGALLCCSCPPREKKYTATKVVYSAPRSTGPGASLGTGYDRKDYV

[5] = biological target: human CLDN3 Q155A mutant on RKO KO cells (human) (UniProt O15551)
Chain of human CLDN3 Q155A mutant on RKO KO cells (human) (O15551 whole entry Q155A): as the sequence (O15551 whole entry S42A) above, with A42S, Q155A counted along it

[6] = biological target: human CLDN3 V150A mutant on RKO KO cells (human) (UniProt O15551)
Chain of human CLDN3 V150A mutant on RKO KO cells (human) (O15551 whole entry V150A): as the sequence (O15551 whole entry S42A) above, with A42S, V150A counted along it

[7] = biological target: human CLDN3 I39A mutant on RKO KO cells (human) (UniProt O15551)
Chain of human CLDN3 I39A mutant on RKO KO cells (human) (O15551 whole entry I39A): as the sequence (O15551 whole entry S42A) above, with I39A, A42S counted along it

[8] = biological target: human CLDN3 N148A mutant on RKO KO cells (human) (UniProt O15551)
Chain of human CLDN3 N148A mutant on RKO KO cells (human) (O15551 whole entry N148A): as the sequence (O15551 whole entry S42A) above, with A42S, N148A counted along it

[9] = biological target: human CLDN3 Q43A mutant on RKO KO cells (human) (UniProt O15551)
Chain of human CLDN3 Q43A mutant on RKO KO cells (human) (O15551 whole entry Q43A): as the sequence (O15551 whole entry S42A) above, with A42S, Q43A counted along it

[10] = biological target: human CLDN3 K156A mutant on RKO KO cells (human) (UniProt O15551)
Chain of human CLDN3 K156A mutant on RKO KO cells (human) (O15551 whole entry K156A): as the sequence (O15551 whole entry S42A) above, with A42S, K156A counted along it

Chain of human CLDN3 R157A mutant on RKO KO cells (human) (O15551 whole entry R157A): as the sequence (O15551 whole entry S42A) above, with A42S, R157A counted along it
Chain of human CLDN3 I45A mutant on RKO KO cells (human) (O15551 whole entry I45A): as the sequence (O15551 whole entry S42A) above, with A42S, I45A counted along it
Chain of human CLDN3 P152A mutant on RKO KO cells (human) (O15551 whole entry P152A): as the sequence (O15551 whole entry S42A) above, with A42S, P152A counted along it

fold change MFI vs CLDN3 WT (fold vs CLDN3 WT) [1]: 1.31 | fold change MFI vs CLDN3 WT (fold vs CLDN3 WT) [2]: 3.17 | fold change MFI vs CLDN3 WT (fold vs CLDN3 WT) [3]: 5.07 | fold change MFI vs CLDN3 WT (fold vs CLDN3 WT) [4]: 3.91 | fold change MFI vs CLDN3 WT (fold vs CLDN3 WT) [5]: 3.4 | fold change MFI vs CLDN3 WT (fold vs CLDN3 WT) [6]: 2.98 | fold change MFI vs CLDN3 WT (fold vs CLDN3 WT) [7]: 0.95 | fold change MFI vs CLDN3 WT (fold vs CLDN3 WT) [8]: 2.75 | fold change MFI vs CLDN3 WT (fold vs CLDN3 WT) [9]: 2.68 | fold change MFI vs CLDN3 WT (fold vs CLDN3 WT) [10]: 0.73
B1: 906-mAb (anti-CLDN3 906-mAb, monoclonal antibody version of the scFv of 906-009_LNGFR) (antibody, V domains shown)
VH: QVQLVQSGAEVKKPGSSVKVSCKASGYTFTNYWVHWVRQAPGQGLEWMGRIEPNSSGSQYNEKFKNRVTITADKSTSTAYMELSSLRSEDTAVYYCARGVMVPLDYWGQGTLVTVSS
VL: DIQMTQSPSSLSASVGDRVTITCKASQDINRYIAWYQQKPGKAPKLLIHYTSTLQPGVPSRFSGSGSGTDFTLTISSLQPEDFATYYCLQYETLYSFGQGTKLEIK
